For assay [1], the system named is SNL pain model in rats. As to the kind of experiment: SNL (spinal nerve ligation) pain model in rats, mechanical allodynia test. It is filed as in vivo, rat. The following applies: SD rats, 1 h after administration. Here is the method: A summary of the method for inducing pain model in rats by means of spinal nerve ligation is provided hereinafter. Briefly, male SD rats were anesthetized with Zoletil R 50+xylazine hydrochloride (20 mg/kg+8 mg/kg, intraperitoneal injection). The surgical areas on the waist regions of the animals were shaved, and the skin was disinfected with iodophor and 70% v/v ethanol for three times. The left spinal nerves L5 and L6 of the animals were isolated, tightly ligated with 6-0 silk suture, and the wounds were sutured.
On the 11th day post operation, the animals were acclimated to the experimental environment, 15 minutes/day, for 3 consecutive days.
Briefly, after SNL modeling, 24 animals were randomly divided into 3 groups (Groups 2, 3 and 4, N=8/group). Group 1 (a Sham group, for which the 10 animals received essentially the same operation procedure as other groups but their left spinal nerves L5 and L6 were neither isolated nor ligated) was used as the control group. The test articles were administrated to the animals according to the protocol shown in Table 5, and mechanical allodynia tests were respectively performed 1h after administration according to the method as recited in Example 1.
Briefly, after SNL modeling, 30 animals were randomly divided into 3 groups (Group 1, N=6/group; Groups 2 and 3, N=12/group). Various polypeptides of the present disclosure were administered to the animals from Groups 2 and 3, and the animals were subjected to mechanical allodynia tests 1 h after administration according to the method as recited in Example 1.

The test system of assay [2] is chemotherapy-induced peripheral neuropathy model induced by cisplatin in mice. The assay is described as follows: Cancer pain associated with CIPN model induced by cisplatin in mice, mechanical allodynia test. It is filed as in vivo, mouse. To be noted: C57BL/6 mice; for pain thresholds (50% PWT) of treatment groups vs model group, preventive effect: 15 mg/kg i.p. qd or bid in parallel with cisplatin. The method, then: The experiments in this Example were divided into two parts. In the first part (Part I), the administration of SEQ ID NO: 29 was performed in parallel with modeling to explore the preventive effect of the polypeptide of the present disclosure on cancer pain associated with CIPN, in particular CIPN induced by cisplatin. In the second part (Part II), after elution of SEQ ID NO: 29 from the mice's bodies, mechanical allodynia tests were performed on the mice to confirm that the animals still had the cancer pain associated with CIPN, and to explore the therapeutic effect of the polypeptide of the present disclosure on cancer pain associated with CIPN after modeling.
44 male C57BL/6 mice weighting 20 to 25 g were randomly divided into 4 groups, with 8 mice in the control group (Group 1, administered with vehicle (normal saline)), 12 mice in the model group (Group 2, administered with vehicle (normal saline) and cisplatin (2.3 mg/kg, i.p., qd)), 12 mice in the treatment group (qd) (Group 3, administered with SEQ ID NO: 29 (15 mg/kg, i.p., qd) and cisplatin (2.3 mg/kg, i.p., qd)) and 12 mice in the treatment group (bid) (Group 4, administered with SEQ ID NO: 29 (15 mg/kg, i.p., bid) and cisplatin (2.3 mg/kg, i.p., qd)).
Administration of SEQ ID NO: 29 was performed on scheduled dates. Briefly, SEQ ID NO: 29 was administered qd or bid by intraperitoneal injection on each day from Day 1 to Day 11, followed by a washing-out period ranging from Day 12 to Day 23. Afterwards, the administration of SEQ ID NO: 29 was resumed on the basis of the same regimen as above, lasting from Day 24 to Day 30.
The mice were subjected to mechanical allodynia tests 0 h before administration and 2 h after the first administration of the test articles (normal saline or SEQ ID NO: 29) according to the method as recited in Example 1 on Day 6, Day 10, Day 23 and Day 30, respectively.

B1: SEQ ID NO: 29: exemplary polypeptide of the present disclosure; artificial polypeptide of formula (I) X-Y (protein)
chain: SEKKQPVDLGLLEEDDEFEEFPAEDWAGLDEDEDAHVWEDNWDDDNVEDDFSNQLRATVLLMILVAETPYGAYVLHQKGRMASAFLAA
Regarding B1, in assay [1] (i.v. single administration (SEQ ID NO: 29 30 and 60 mg/kg; SEQ ID NO: 90 and 93 60 mg/kg)), the “analgetic effect (50% PWT)” value is listed as “certain analgetic effect”. The “analgetic effect of 60 mg/kg compared with 30 mg/kg (50% PWT)” value in assay [1] (i.v. single administration) is “much higher than that produced from the dose of 30 mg SEQ ID NO: 29/kg”. In assay [2] (15 mg/kg i.p. qd or bid Day 24 to Day 30, Day 30 vs Day 23), the “pain thresholds (50% PWT) of treatment groups, therapeutic effect” value is “significantly increased”. The “pain thresholds (50% PWT) of treatment groups vs model group, preventive effect” value in assay [2] (Day 6) and in assay [2] (Day 10) was “significantly higher than those of the mice from the model group” throughout. In addition, the “levels of pain thresholds under different dosing frequency” value in assay [2] (15 mg/kg i.p., qd vs bid) is recorded as “dose-related”.

Values taken from US20260022144A1, “ANALGESIC POLYPEPTIDE” (Shanghai Puyou Biomedical Co., Ltd., priority 2022, published 2026).
